Assay results published in article PMC4409664 (Cell, 2015).

Target: wild-type human serum retinol binding protein with an N-terminal hemagglutinin tag (RBP^HA WT) (human, UniProt P02753 19-201)
Assay: ELISA

B1: STRA6 (stimulated by retinoic acid 6) membrane receptor with a myc tag (STRA6^myc) (receptor, UniProt Q9BX79 1-667, looked up)
chain: MSSQPAGNQTSPGATEDYSYGSWYIDEPQGGEELQPEGEVPSCHTSIPPGLYHACLASLSILVLLLLAMLVRRRQLWPDCVRGRPGLPSPVDFLAGDRPRAVPAAVFMVLLSSLCLLLPDEDALPFLTLASAPSQDGKTEAPRGAWKILGLFYYAALYYPLAACATAGHTAAHLLGSTLSWAHLGVQVWQRAECPQVPKIYKYYSLLASLPLLLGLGFLSLWYPVQLVRSFSRRTGAGSKGLQSSYSEEYLRNLLCRKKLGSSYHTSKHGFLSWARVCLRHCIYTPQPGFHLPLKLVLSATLTGTAIYQVALLLLVGVVPTIQKVRAGVTTDVSYLLAGFGIVLSEDKQEVVELVKHHLWALEVCYISALVLSCLLTFLVLMRSLVTHRTNLRALHRGAALDLSPLHRSPHPSRQAIFCWMSFSAYQTAFICLGLLVQQIIFFLGTTALAFLVLMPVLHGRNLLLFRSLESSWPFWLTLALAVILQNMAAHWVFLETHDGHPQLTNRRVLYAATFLLFPLNVLVGAMVATWRVLLSALYNAIHLGQMDLSLLPPRAATLDPGYYTYRNFLKIEVSQSHPAMTAFCSLLLQAQSLLPRTMAAPQDSLRPGEEDEGMQLLQTKDSMAKGARPGASRGRARWGLAYTLLHNPTLQVFRKTALLGANGAQP
For B1, which Kd is on record?
Its Kd is 59 nM.
